Laboratory results: patent publication US20120263734A1 (THERACLONE SCIENCES, published 2012)
Residue numbers refer to the chain shown, from its start.

Biological target: GPCMV gB (glycoprotein B of Guinea Pig CMV strain V545/82) (guinea pig CMV (GPCMV))
Assay: cell-based or functional assay

B1: 2N9 human anti-CMV antibody (antibody, V domains shown)
VH: QVQLVESGGGVVQPGRSLRLSCAASGFTFSSNGIHWVRQAPGKGLDWVAVISSDANDKQYADSVKGRFTISRDNSKNMVYLQMNSLRVEDTAVYFCARDGTCSGGNCYSGLIDYWGRGILVTVSS
VL: EIVLTQSPATLSLSPGERATLSCRASQSVGGYLAWYQQKPGQAPRLLIYDASIRATGIPARFSGSGSGTDFTLTISSLEPEDFAVYYCHQRSNWPPLTFGGGTKVDIKR
With B1 the “neutralization of GPCMV V545/82 entry into JH4 cells (highest concentration tested, no effect)” value was > 300 µg/mL.

B2: 5P9 human anti-CMV antibody (antibody, V domains shown)
VH: QVQLVESGGGVIQPGRSLRLSCVASKFIFSNHGIHWVRQAPGKGLEWVAVISKDGTNAHYADSVRGRFSISRDNSKDTVFLEMRSLRPEDTAVYYCAREGRCIEEKCYSGQIDYWGQGSLVTVSS
VL: B1 VL with V3L, G31R, L33M, K39R, E79Q, P80T, V85I, H89Q, N93S, D106E
B2 was tested, and the “neutralization of GPCMV V545/82 entry into JH4 cells (highest concentration tested, no effect)” value was > 300 µg/mL.

B3: 4P12 human anti-CMV antibody (antibody, V domains shown)
VH: B2 VH with K106N
VL: B1 VL with V3L, G31R, L33M, K39R, E79Q, V85I, H89Q, N93S, D106E
For B3, the “neutralization of GPCMV V545/82 entry into JH4 cells (highest concentration tested, no effect)” value was > 300 µg/mL.

B4: 2F10 human anti-CMV antibody (antibody, V domains shown)
VH: QVHLVESGGGVVQPGRALRLSCAATGFTFSNHGIHWVRQAPGKGLEWLAVISSDGDDDRYADSVKGRFSVSRDNSKNTVHLQMNGLRPDDTAIYFCARDGRCGEPKCYSGLPDYWGRGTLVTVSS
VL: B1 VL with E17D, I48L, I53N, V85L, H89L, S92N, N93T, D106E
B4 was tested, and the “neutralization of GPCMV V545/82 entry into JH4 cells (highest concentration tested, no effect)” value was > 300 µg/mL.
